Entries after “also recorded” stand apart in the source; their conditions may differ.
B1: CCL19: chemokine CCL19 (R&D Systems) used as chemoattractant for T cells (protein, UniProt Q99731 22-98, looked up)
C-C motif chemokine 19: GTNDAEDCCLSVTQKPIPGYIVRNFHYLLIKDGCRVPAVVFTTLRGRQLCAPPDQPWVERIIQRLQRTSAKMKRRSS

Assays:
[1] = system: Acute promyelocytic leukemia cells; details: differentiation down the neutrophil lineage for three days; cited from earlier work
naïve WT T cells = experiment: In vitro Transwell cell migration toward CCL19; type: cell-based, mouse; details: after CCL19 exposure
Method: (§1) Cells from the peripheral lymph nodes and the spleen of Balb/c mice and WAS−/− mice on Balb/c background were pooled and enriched using the EasySep Mouse CD8+ T Cell Enrichment Kit from STEMCELL Technologies (British Columbia, Canada). Enrichment was confirmed using fluorescence-activated cell sorting (FACS) by staining the cells with FITC/anti-Thy1.2 and PE/anti-CD8α antibodies (Abs). The memory T cell population was assessed by evaluating the expression of CD44 and CD62L via FACS. T cells in an activation medium with 100 units/mL IL-2 and 1% anti-CD28 Ab were activated by plate-bound anti-CD3 Abs for 4 day at 37° C. The activation medium included RPMI with 10% FBS, 10 mM HEPES (1M), 1% NEAA, 1% sodium pyruvate (100 mM), 50 μM β-mercaptoethanol, 4 mM L-glutamine, and 100 μg/mL Pen/Strep. Cell activation was verified via FACS measurement of CD25. Enriched WT and WAS−/− T cells in DMEM with 1% BSA and 0.1% Pen/Strep were induced to migrate through polycarbonate Transwell inserts (Costar, Cambridge, Mass.) with 5-μm pores in a 24-well plate toward a CCL19 chemokine source (R&D Systems, Minneapolis, Minn.). Inserts contained 5×10^5 cells in 100 μL of medium, and wells contained 1 mL of medium with either no CCL19 or 100 ng/mL of CCL19. Cells were allowed to migrate for ˜7 hours at 37° C., and those that crossed the membrane were collected and used for MPA studies.

naïve WAS−/− T cells = experiment: In vitro Transwell cell migration toward CCL19; type: cell-based, mouse
Method: as §1

WAS−/− T cells = experiment: Micropipette aspiration of chemokine-stimulated T cells; type: cell-based, mouse; details: naïve WAS−/− T cells
Method: (§2) Micropipettes made using a micropipette puller were trimmed to 2.5-3 or 4.5-5 μm inner diameter for testing naïve and activated T cells. MPA glass chambers consisted of a 24 mm×60 mm microscope coverslip bottom, a U-shaped parafilm spacer, and a 22 mm×22 mm microscope coverslip top. The assembly was baked for two hours at 80° C. to ensure good adhesion between the components.
(§3) Enriched WT and WAS−/− T cells in DMEM with 1% BSA and 0.1% Pen/Strep were induced to migrate through polycarbonate Transwell inserts (Costar, Cambridge, Mass.) with 5-μm pores in a 24-well plate toward a CCL19 chemokine source (R&D Systems, Minneapolis, Minn.). Inserts contained 5×10^5 cells in 100 μL of medium, and wells contained 1 mL of medium with either no CCL19 or 100 ng/mL of CCL19. Cells were allowed to migrate for ˜7 hours at 37° C., and those that crossed the membrane were collected and used for MPA studies.
(§4) 3×10^5 cells in 100 μL RPMI with 10% FBS and 1% HEPES was stained with 10 μL trypan blue. The mixture was added to 600 μL of either the RPMI medium or the T cell activation medium with IL-2 for naïve and activated T cell testing. Migratory T cells were tested in the medium used for migration. The MPA device was based on the design of Hochmuth et al (18). The aspiration rate and volume were 36 mL/hr and 2 mL, corresponding to a total pressure of ˜400 Pa. The cell movement in the micropipette was recorded with a CCD camera. Aspirations were performed at approximately room temperature.
(§5) MPA data were fitting using the half-space model (77) described by the expressions:
(§6) where E is the cell modulus, L is the length from the micropipette opening to the cell leading edge, Δp is the pressure differential at a particular L, ri and ro are the inner and outer […] of the micropipette, and φ is the wall function that is approximately […]. The ImageJ software was used to manually track the change in L. By plotting Δp against ri/L and finding the best linear fit (minimal total error) a modulus could be derived from the slope of the line. […]

WT T cells = experiment: as above; type: cell-based, mouse
Method: as §2, §3, §4, §5, §6

Molecule	compliance of differentiated cells relative to control (more compliant) [1] [%]	migrating cells stained CD62L high and CD44 low (naïve phenotype), FACS (naïve WT T cells) [%]	cells with naïve phenotype (CD62L and CD44 co-staining), FACS (naïve WAS−/− T cells; all three groups (untreated, remained in insert, migrated)) [%]	cells migrated (naïve WAS−/− T cells; seven hours exposure to CCL19, 100 ng/mL, 5-μm pore inserts) [%]	change in modulus before and after the chemokine treatment (Student's t test) (WAS−/− T cells)	stiffness compared to activated cells (WT T cells; migratory WT cells after CCL19)	change in modulus before and after the chemokine treatment (Student's t test) (WT T cells; naïve WT T cells)
CC1=C(/C=C/C(C)=C/C=C/C(C)=C/C(=O)O)C(C)(C)CCC1 [all-trans retinoic acid]	45						
B1		~90	~90	~6.4	did not pass the 95% significance level; also recorded: insignificant decrease	about 1.4 times	significantly different

Reference: patent publication US20110293558A1, “MATERIAL PROPERTIES OF T CELLS AND RELATED METHODS AND COMPOSITIONS” (Massachusetts Institute of Technology, priority 2010, published 2011)
